6 molecules from paper doi:10.1101/2024.02.23.581681 (bioRxiv, 2024) can be followed below.

The target of experiment [1] is RCD1-SRO-TAF4 (RST) domain from Radical-Induced Cell Death1, RCD1-RST_(499-572) (UniProt Q8RY59). Briefly: ITC.
In experiment [2] the target is T1, RCD1-SRO-TAF4 (RST) domain from Radical-Induced Cell Death1, RCD1-RST_(499-572) (UniProt Q8RY59 499-572).
T1 sequence (looked up): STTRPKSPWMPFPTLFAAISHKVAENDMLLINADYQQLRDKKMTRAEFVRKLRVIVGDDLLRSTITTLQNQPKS
Nature of the experiment: ITC.

The molecule “D-ANAC013_(254-274) peptide, D-enantiomer (from UniProt F4IED2 254-274)” registered a fold difference in Kd against L-ANAC013 in experiment [1] of 500 fold.

Take “D-ANAC046_(319-338) peptide, D-enantiomer (from UniProt Q9SQQ6 319-338)”: the fold difference in Kd against L-ANAC046 in experiment [1] is 15 fold.

In turn, “D-DREB2A_(255-272) peptide, D-enantiomer (from UniProt O82132 255-272)” returned a fold difference in Kd against L-DREB2A in experiment [1] of 72 fold.

Take SKSACDGLDDLIFWEDLYTS (peptide, UniProt Q9SQQ6 319-338, looked up) [L-ANAC046_(319-338) peptide]: the binding result in experiment [2] is given as “binds”.

With SSDMFDVDELLRDLNGDD (peptide, UniProt O82132 255-272, looked up) [L-DREB2A_(255-272) peptide], the binding result in experiment [2] is recorded as “binds”.

For the molecule NLEEDMYLEINDLMEPEPEPT (peptide, UniProt F4IED2 254-274, looked up) [L-ANAC013_(254-274) peptide], the binding result in experiment [2] is recorded as “binds”.
